# Data published in article PMC6930178.
# Molecular target: HIV-1 clade C 96ZM651 gp140 Env trimer (HIV-1 clade C isolate 96ZM651)
# Experiment: native gel or EMSA
substance,measurement,value
HIV-1 clade C 96ZM651 gp140 Env trimer (domain or fragment),stoichiometry N,3
